We go through 4 variants from article PMC4474532.

B1: human PERK luminal domain (residues 105–403) [human] / itself (parent)
chain: LVIISTLDGRIAALDPENHGKKQWDLDVGSGSLVSSSLSKPEVFGNKMIIPSLDGALFQWDQDRESMETVPFTVESLLESSYKFGDDVVLVGGKSLTTYGLSAYSGKVRYICSALGCRQWDSDEMEQEEDILLLQRTQKTVRAVGPRSGNEKWNFSVGHFELRYIPDMETRAGFIESTFKPNENTEESKIISDVEEQEAAIMDIVIKVSVADWKVMAFSKKGGHLEWEYQFCTPIASAWLLKDGKVIPISLFDDTSYTSNDDVLEDEEDIVEAARGATENSVYLGMYRGQLYLQSSVRI

The variants in the assay derive from B1. Put plainly: sedimentation velocity AUC. The conditions noted are these: with itself.

LVIISTLDGRIAALDPENHGKKQWDLDVGSGSLVSSSLSKPEVFGNKMIIPSLDGALFQWDQDRESMETVPFTVESLLESSYKFGDDVVLVGGKSLTTYGLSAYSGKVRYICSALGCRQWDSDEMEQEEDILLLQRTQKTVRAVGPRSGNEKWNFSVGHFELRYIPDMETRAGFIESTFKPNENTEESKIISDVEEQEAAIMDIVIKVSVADWKVMAFSKKGGHLEWEYQFCTPIASAWLLKDGKVIPISLFDDTSYTSNDDVLEDEEDIVEAARGATENSVYLGMYRGQLYNQSSVRI [chain 1 L293N]: the screen value by setting is: (parent: 0) -61%; (parent: 0.73) 0.28.

On to LVIISTLDGRIAALDPENHGKKQWDLDVGSGSLVSSSLSKPEVFGNKMIIPSLDGALFQWDQDRESMETVPFTVESLLESSYKFGDDVVLVGGKSLTTYGLSAYSGKVRYICSALGCRQWDSDEMEQEEDILLLQRTQKTVRAVGPRSGNEKWNFSVGHFELRYIPDMETRAGFIESTFKPNENTEESKIISDVEEQEAAIMDIVIKVSVADWKVMAFSKKGGHLEWEYQFCTPIASAWLLKDGKVIPISLFDDTSYTSNDDVLEDEEDIVEAARGATENSVYLGMYRGQNYLQSSVRI [chain 1 L291N], for which the screen value was -57% (parent: 0) and 0.32 (parent: 0.73).

With LVIISTLDGRIAALDPENHGKKQWDLDVGSGSLVSSSLSKPEVFGNKMIIPSLDGALFQWDQDRESMETVPFTVESLLESSYKFGDDVVLVGGKSLTTYGLSAYSGKVRYICSALGCRQWDSDEMEQEEDILLLQRTQKTVRAVGPRSGNEKWNFSVGHFELRYIPDMETRAGFIESTFKPNENTEESKIISDVEEQEAAIMDIVIKVSVADWKVMAFSKKGGHLEWEYQFCTPIASAWLLKDGKVIPISLFDDTSYTSNDDVLEDEEDIVEANRGATENSVYLGMYRGQLYLQSSVRI [chain 1 A274N], the screen value (parent: 0) was -52% and the screen value (parent: 0.73) worked out at 0.35.

As for LVIISTLDGRIAALDPENHGKKQWDLDVGSGSLVSSSLSKPEVFGNKMIIPSLDGALFQWDQDRESMETVPFTVESLLESSYKFGDDVVLVGGKSLTTYGLSAYSGKVRYICSALGCRQWDSDEMEQEEDILLLQRTQKTVRAVGPRSGNEKWNFSVGHFELRYIPDMETRAGFIESTFKPNENTEESKIISDVEEQEAAIMDIVIKVSVADWKVMAFSKKGGHLEWEYQFCTPIASAWLLKDGKVIPISLFDDTSYTSNDDVLEDEEDIVEAARGATENSVYNGMYRGQLYLQSSVRI [chain 1 L284N], the screen value (parent: 0) was -58% and the screen value (parent: 0.73) amounted to 0.31.
